From FireProtDB (doi:10.1021/bi000176d) come the findings set out here.

For the data set the following is noted: Homo sapiens, pH 7, 25 °C, Sodium phosphate 20 mM, NaCl 100 mM, transition: 3, reversible: yes, whole UniProt chain shown.

“And” between values parts separate entries of the source, which are not always exact repeats. Identical values can stand only once.

B1: Glutathione S-transferase A1 wild type, P08263 (protein)
chain: MAEKPKLHYFNARGRMESTRWLLAAAGVEFEEKFIKSAEDLDKLRNDGYLMFQQVPMVEIDGMKLVQTRAILNYIASKYNLYGKDIKERALIDMYIEGIADLGEMILLLPVCPPEEKDAKLALIKEKIKNRYFPAFEKVLKSHGQDYLVGNKLSRADIHLVELLYYVEELDSSLISSFPLLKALKTRISNLPTVKKFLQPGSPRKPPMDEKSLEEARKIFRF
As for B1, the “denaturant midpoint (higher = more stable)” value is 1.5 M and 1.3 M and 2.3 M (GdnHCl, Absorbance); 2.2 M (GdnHCl, CD); 1.8 M and 1.1 M and 2.4 M (GdnHCl, Fluorescence); 4.8 M and 4.1 M (Urea, Absorbance); 5.3 M and 4.8 M (Urea, CD). Also, the unfolding free energy is, setting by setting: (GdnHCl, Absorbance) 8.96 kcal/mol and 10.2 kcal/mol and 11.8 kcal/mol; (GdnHCl, CD) 17 kcal/mol; (Urea, Absorbance) 14 kcal/mol and 12.7 kcal/mol; (Urea, CD) 19.6 kcal/mol and 17.1 kcal/mol. Also, the denaturant m value (GdnHCl, CD) came to 4.8 kcal/mol/M; the denaturant m value (Urea, Absorbance) was 2.12 kcal/mol/M and 2.31 kcal/mol/M; the denaturant m value (Urea, CD) was 3.38 kcal/mol/M and 3.67 kcal/mol/M.
